For data set [1], the system named is grapevine powdery mildew E. necator. In words: Vineyard field trials of topical dsRNA: powdery mildew disease incidence and disease severity (Kearney and Armstrong sites). It is filed as in vivo, Erysiphe necator. The following applies: for powdery mildew disease incidence: Chenin Blanc, 3 weeks after end of treatments (June 23), untreated ~80%; for mean disease severity (percent of berries with powdery mildew per bunch): June 28, almost 4 weeks post dsRNA treatment, untreated 12%. As for the experimental part: The tests were done at Kearney Agriculture Research and Extension Center, Parlier, CA (Fresno County) and Armstrong Plant Pathology Field Station at University of California, Davis, CA. Susceptible grapevine cultivars were tested—Sauvignon Blanc at Kearney and Chenin Blanc at Davis. In both cases, the Stihl backpack sprayer SR450 was used and sprayer calibration, and normalization was performed to ensure equal doses of treatment applied to each replicate. During the trial period, vines were irrigated by drip irrigation and the regular maintenance of weeding, herbicide and insecticide treatments were done by the Kearney or Davis site field staff. In early season, 2.0 gallons/5 replicates and in mid to late season 2.5 to 3.0 gallons/5 replicates were sprayed. All appropriate personal protective equipment (PPE) was used and required training was completed including pesticide application training and heat exhaustion training. A randomized block design was used with 5 replicates for each treatment. Two adjacent vines were used as one experimental unit and the area between two trunks (yellow box) was sprayed and assessed (FIG. 16).
The trial was conducted at Kearney Agricultural Research and Extension Center, Parlier, CA on blocks of the susceptible white wine variety Sauvignon Blanc. Total of 5 different gene targets from grapevine powdery mildew E. necator, EnCYP51 (SEQ ID NO:182), EnLIP1 (SEQ ID NO:183), EnICL2 (SEQ ID NO:186), EnMS (SEQ ID NO:188) and EnAPG9 (SEQ ID NO:208) were tested at this site by backpack spraying of the experimental units with dsRNA designed specifically against these target genes. The treatments were placed in a randomized block design with 5 replicates of each (dsRNA treatments 1-5), 5 replicates of Gold Standard (GS) and 5 replicates of untreated control (UT Control). Gold Standard refers to the pesticides normally used by growers to control powdery mildew: Sulfur and other chemical fungicides such as Rally, Quintec, and Luna. Between each treatment replicate, consisting of two vines, there was a spacer vine to avoid the spray drift from one treatment another.
FIG. 17 provides an overview of the treatment schedule at Kearney. A total of 4 treatments of dsRNA were performed between May and July, replacing the 4 final treatments of the GS. Data were collected at the times marked by the gray dots in FIG. 17. The monitoring of powdery mildew index data and manual scouting of disease in the field was used to adjust timing schedule per standard protocol (www2.ipm.ucanr.edu/weather/grape-powdery-mildew-risk-assessment-index/?src=redirect2refresh).
The total number of bunches per replicate (mean of 130) and the bunches with powdery mildew growth were counted and percent of infected bunches per replicate was calculated.
Disease severity was calculated by counting the number of infected berries compared to total berries in a bunch. 25 bunches from both sides of the canopy were assessed per replicate.
This trial was conducted at University of California Davis Plant Pathology Armstrong Facility on white wine variety Chenin Blanc. A total of 4 different gene targets from grapevine powdery mildew E. necator, EnLIP1 (Seq ID No:183), EnICL2 (Seq ID 186), EnMS (Seq ID No:188) and EnAPG9 (Seq ID No:208) were tested at this site by treating the vines with dsRNA designed against these target genes. A randomized block design with 5 replicates of each (treatments 1-5) and 5 replicates of untreated control (UT Control) was utilized. Spray protocols and spray volumes were the same as done by Akif Eskalen's team as shown on this link (Elfar et al. 2021, ucanr.edu/sites/eskalenlab/files/355630.pdf) and in Table 10. Eskalen's lab performed 3rd party commercial fungicide trials for the industry.
In this field trial, a total of 3 sprays of dsRNA were performed between May and early June (FIG. 21). For the dsRNA treatments, no parallel chemical treatments were performed prior to the dsRNA treatments. […]

The next data set concerns G. orontii MGH1. The data set is described as follows: Spray-induced gene silencing (SIGS), G. orontii spore production on A. thaliana (whole plant and detached leaf assays). The following applies: topical dsRNA against G. orontii target (Gor Seq ID); detached leaf assay; n>=3. It is filed as in vivo, Golovinomyces orontii.

The text below walks through data of patent US20260117244A1, “INHIBITORY RNA FOR THE CONTROL OF PHYTOPATHOGENS” (priority 2021, published 2026).

B1: EnAPG9: dsRNA against E. necator Autophagy protein Apg9 (target SEQ ID NO:208) (nucleic acid, listed as Golovinomyces orontii)
chain: ATGCCGTCTATCCCCATCACTATCATTACTGGCTTTCTAGGGTCTGGTAAAACAACTCTCCTTCTCAATATTCTTCCTCAAATACTTGCCAAGAATCCGAAATATAAATTAGCGCTTCTCAAAAATGAATTTGGAGATTTGGCTGTCGATAGTCAACTTGCAGGCTCTTCTATCACTGGTGTTCGTGAGATTCTAAATGGCTGCATTTGCTGTAACCTCGTCGGCTCTCTCTCATCGGCCCTTGAGGAGCTCACAGAGAGTATTTCTCCCGACCGAATAGTGATTGAAACGTCTGGGTCAGCATTCCCTGCAACGCTAGCTATGGAGGTTAATCGACTAGCGCGGGAGACCCAGGGTAAATATGTTCTAGATGGTGTAGTGACTGTTATTGATGTCGAAAACTGGAAGGGATATGAAGATACTAGCTTTACCGCACGATTACAAGCTCGTTACACAGATCTTGTTGTTTTTAATAAGTGGGAGGATGTTGGTGAAAGGAGGTGGGACGAATGTTTAGATCGACTGGGTGATATGGAGGTTGAAATTCCATGGGTTAAGAGTCAGAGGGGATTTGTTGATATGGATATTATCTTTGGCCTTGATGGAGGACTAGCAAAAGAATTAGAGGGAGAAGTAGAGCAAGGCCTACATCAGCAAAAAAAAACGCACAAGGACGGCGAAAGTCACCAGAACGAGGTTGAGGTACTTTCTGTCACCCTTTCTAAAAAATCTGATATCTCCTCGACCATTACACGTCCGAATTCAGAGCTTACCCCAAAAATTGATACTGATGCTCTGCTGAAACTTCTCCAAACAGCACCCAAGGACGAGGTCTACCGGATAAAGTCAATCTTTACTTCTTCTACACCTATGCCTTCATCTACTCCTATATCATCTTCAGATCTATCAGAAACGCCAGTGTCTTCAGTTGCTGGCCCAAATAAATACATTCTAAATTGGTCATTTGGTCGCTGGACCTGCACACCTATGCCCTCCACTAATTCTTCAACCACAGGAGACAGCTTTGAGCACCCATCTAGCGAGGCCGTAGGTCAAGGAGAAGTTTTCCTTCGCATGATTATAATTCTCTCAAGAGGTGCTGGTAAGAAATGGAAAAAAAGACTTGAGGATGGAGGTTTTATACGTTTCAAGGGTGTGGCCGGAACCGACGTACAGAATTTAAATGTTGTTCCCATCAGTTAA
modifications: listed as DNA
In the case of B1, in data set [1] (Armstrong site), the “powdery mildew disease incidence” value was approximately 20% and the “mean disease severity (percent of berries with powdery mildew per bunch)” value worked out at 1%. In addition, the “fold by which average disease incidence of untreated control increases faster than that of the dsRNA treatment (slopes)” value in data set [1] (Armstrong site, FIG. 22 panel B) is 2.74 fold. The mean disease incidence in data set [1] (Armstrong site, July 16, more than six weeks after dsRNA treatments) is 24%. In addition, the “powdery mildew infection / disease in vineyard” value in data set [1] (topical spraying, vineyard field trials 2021, trial sites in California) is reported as “effective”.

B2: 181 (nucleic acid, listed as Golovinomyces orontii)
chain: ATGTCTAATCAGCTAAAACATCCCTCTTTACTCATTCCAGGCCCCGTTGAGATTGACGATGCTGTCCTTCACTCTATGAGCCATCACAGATCCTCATCTTACTGCAGTGAGAGCCATGTGGACATATCGTTTATAAAAACTTTTGGAAAAACGTTGTACATGCTCAGGAAGCTATTCCAATCTAATGATCCTTACTCTCAACCATTCGTAATTTCCGGATCTGGTACCCTAGGATGGGATCTAGTAGCCGCAAATTTAGCGGAACGCGGTGATGATGTCTTAGTATTACACACGGGTTACTTTGCAGACTCTTTCTCCGATTGCTTTGAGACCTACGGGATAAACGTCACACAGCTTATAGCTCCGATTGGTTCAAGACCCCAACTAATAGAGATTGAAGAAGAATTATCAAAAAAGACCTACAAACTTCTAACAGTGACCCATGTCGATACCTCGACTGGCGTATTAAATGAACTGGAGCCAATTTCAGAAATAGTTCATCGGGTTTCTCCTGAGACCCTTGTAATTGTTGATGGAGTGTGCAGTGTCGGGTCTGAGGAGATCGCTTTCGACTCCTGGAAACTCGATGGAGTTATCACTGCAAGCCAGAAAGCAATTGGTGCACCGGCTGGTCTTTCCATCTCAATTTTCAGTGGCCGTGCGATTCAGTCATTTAATGACCGACAGACTCCTCCTGGGTCTTACTATGCATCATTCAAGAATTGGATGCCTATCATGCAGAGCTATGAAGCCCAAGAGCCTTCATATTTTGCAACTCCATCCATTCATTTGATCCATGCACTTCACACCTCTTTAACGCAAATTCTCTCACGCCCTCTTTCAGAGCGGTTCACTATTCACAGAGAAATATCTCAAAGAGTAAAAGAAGCAGTTTCTGGAATGGGATTAACTCAGTTGGCTGCCAATCCTGAAAATCAAGCAAACGGAATGACAGCAATATATTTGCCAGATAATATTAAAGCGAAAGACCTTTTAACCAAGATACTTCAAAAAGGAGTTGTTCTTGCTGGTGGATTACATAAAGAAATTGCTCATAAGTATATTCGCTTTGGTCATATGGGGGTGAGCGTGACCAAGCCTGAAAGGGGTGATATTGAACGAGCTATCAAAGCTTTGGAGACAAGTCTTTCAGAGTTAGGATATCGTAGAGAGAAACAGTCTTAG
modifications: listed as DNA
B2: in the data set with G. orontii MGH1, the “G. orontii Spore Production on Arabidopsis, Detached Leaf Assay, % reduction” value is 62%.

B3: EnLIP1: dsRNA against E. necator TAG lipase 1 (target SEQ ID NO:183) (nucleic acid)
chain: ATTAATACTGGTGCTGTACAGCGCCTATTACACATTAATGAGGACTGTTTAACTGTCACTGTTCAAAAACCATCATATGCGACTCCCGACTCTAAGTTTCCTGTCGTGTTCTCTCTATTTTTTGGAGGGTTTGGTTTTGGTTCAACGGCAATATATGATGCCTCTAAACTTATTCAAGCAGGTATCAATGCAGGTAAACCTATCGTCTACGTTGCTGTAAATTATCGTTTGGGTGCATTTGGATGGCTTGGAGGAAGAGAAATTAAAGAGGCAGGTCTCGCTAATCTTGGCCATTACG
modifications: misc_feature 1..298: note = Inhibitory double stranded RNA; listed as RNA
Regarding B3, in data set [1] (Armstrong site), the “powdery mildew disease incidence” value was approximately 20% and the “mean disease severity (percent of berries with powdery mildew per bunch)” value is on record as 1%.

B4: EnMS: dsRNA against E. necator Malate synthase (target SEQ ID NO:188) (nucleic acid)
chain: TACAAGCTCAGATCAGACCGAAAACTTCCAACGCTTATTATAAGACCTCGTGGCTGGCACTTAGATGAGAAACATGTAACTATTGAAGGAGAGCCAATATCCGGCTCTCTATTCGATTTTGGACTATACTTTTTTCACAATGCCAAAGAACTGATAAAACGAGACTTAGGGCCCTACTTTTATCTTCCAAAGATGGAATCTTATCTAGAAGCCCGTCTTTGGAATGATGTCTTCAACCTAGCACAGGACTATATTGGTATTTCTCGTGGAACTATACGCGCTACAGTTCTAATTGAAACCATACTTGCTGCATTTGAAATG
modifications: misc_feature 1..321: note = Inhibitory double stranded RNA; listed as RNA
For the molecule B4, in data set [1] (Armstrong site), the “powdery mildew disease incidence” value is given as approximately 20% and the “mean disease severity (percent of berries with powdery mildew per bunch)” value is 2%.
